Target: T1, exoplasmic domain of human CD40 (GST-CD40) (Homo sapiens, UniProt P25942)
T1 construct: The cDNA for the exoplasmic domain of CD40 (amino acids 20-212); made in house; host or cells: E. coli, pGEX-2T
Assay: GST-CD40 binding and competition assay with recombinant Hsp70 and its domains
Settings: ADP, 5-fold molar excess of competitor
Method: For binding assays with recombinant Hsp70 and its domains, 3 μM His6-Hsp70 or its His6-tagged domains were incubated with 2 mM ATP, 2 mM ADP or 2 mM ADP and 28 μM peptide C in 50 μl binding buffer (10 mM MOPS/KOH, pH 7.2, 150 mM KCl and 3 mM MgCl2) for 30 min at 37° C. In competition experiments binding was probed with either a 10-fold excess of Hsp70, the two domains, or DnaK, or with a 5-fold excess of Hip or Bag 1 for 10 min at 0° C. To this end, Hsp70, N70, C70 and DnaK were preincubated with ADP, ATP and peptide C as described above. […] 10 μl of the eluates were subjected to SDS-PAGE and analyzed by immunoblotting using a Penta-His-antibody (Quiagen). Blot signals were quantified by Quantity One (Biorad).
Details for FIG. 3. […] Thereafter samples were affinity purified on glutathione-Sepharose as outlined in Experimental Procedures, subjected to SDS-PAGE and analyzed by immunoblotting with antibodies directed against Hsc70 and Hsp70 (upper lanes), and against Hsp90 (lower lanes). […] After affinity purification samples were analyzed by immunoblotting as described in A, using antibodies directed against the His6-tag. […] Protein bound to Hsp70 was analyzed by affinity purification on Ni-NTA-agarose and immunoblotting with antibodies directed against CD40. […]
Details for FIG. 5. […] The lower panel is a quantitation of the data. […]

T1 sequence (P25942 20-212): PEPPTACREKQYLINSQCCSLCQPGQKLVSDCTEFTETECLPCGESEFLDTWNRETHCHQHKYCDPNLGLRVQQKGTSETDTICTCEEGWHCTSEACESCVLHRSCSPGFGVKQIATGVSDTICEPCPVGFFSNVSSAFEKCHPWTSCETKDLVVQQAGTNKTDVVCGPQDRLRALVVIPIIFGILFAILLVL

B1: Hip: Hsp70 cochaperone that stabilizes the ADP-state of Hsp70, recombinant His-tagged (protein, UniProt P50502 1-369, looked up)
Hsc70-interacting protein: MDPRKVNELRAFVKMCKQDPSVLHTEEMRFLREWVESMGGKVPPATQKAKSEENTKEEKPDSKKVEEDLKADEPSSEESDLEIDKEGVIEPDTDAPQEMGDENAEITEEMMDQANDKKVAAIEALNDGELQKAIDLFTDAIKLNPRLAILYAKRASVFVKLQKPNAAIRDCDRAIEINPDSAQPYKWRGKAHRLLGHWEEAAHDLALACKLDYDEDASAMLKEVQPRAQKIAEHRRKYERKREEREIKERIERVKKAREEHERAQREEEARRQSGAQYGSFPGGFPGGMPGNFPGGMPGMGGGMPGMAGMPGLNEILSDPEVLAAMQDPEVMVAFQDVAQNPANMSKYQSNPKVMNLISKLSAKFGGQA
modifications: His tag
notes: Hsp70 cochaperone that stabilizes the ADP-state of Hsp70, recombinant His-tagged
  competition for the binding of full-length Hsp70 to CD40: acted as an effective competitor of the interaction

From patent US20040071656A1, “Modulation of heat-shock-protein-based immunotherapies” (priority 2001, published 2004)
